Substitutions are numbered along the chain they refer to.
T1: human TIGIT-Fc (human, UniProt Q495A1 22-141, limits assumed)
T1 construct: not shown: Fc; not described
T1 sequence (looked up): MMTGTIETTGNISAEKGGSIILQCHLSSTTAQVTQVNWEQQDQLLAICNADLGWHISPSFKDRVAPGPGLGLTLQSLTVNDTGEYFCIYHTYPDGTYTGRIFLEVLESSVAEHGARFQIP

B1: TIGIT-SC73 (Fc fusion)
VHH: EVQLVESGGGLVQPGGSLRLSCAASGSSFSLADYAMGWFRQAPGKEREFVAAISYNVGTTYYADSVKGRFTISADNSKNTAYLQMNSLKPEDTAVYYCARWSAKRHSDTMTYYMDVWGQGTLVTVSS
notes: VHH-Fc
B2: TIGIT-SC66 (Fc fusion)
VHH: EVQLVESGGGLVQPGGSLRLSCAASGTTFSSAAMGWFRQAPGKEREWVASVLRGGYTWYADSVKGRFTISADNSKNTAYLQMNSLKPEDTAVYYCVTDPRQWLGHDYWGQGTLVTVSS
notes: VHH-Fc
B3: TIGIT-SC191 (Fc fusion)
VHH: EVQLVESGGGLVQPGGSLRLSCAASGFVFSSDWMGWFRQAPGKEREWVASVLRGGYTWYADSVKGRFTISADNSKNTAYLQMNSLKPEDTAVYYCARGDSMDVWGQGTLVTVSS
notes: VHH-Fc
B4: TIGIT-SC195 (Fc fusion)
VHH: B3 VHH with V28A, D99E, S100G, M101F, V103Y
B5: TIGIT-SC203 (Fc fusion)
VHH: B3 VHH with V28T, S31P, D32S, G98D, D99R, S100G, M101G, D102S, V103D
notes: VHH-Fc
B6: TIGIT-SC198 (Fc fusion)
VHH: B3 VHH with V28T, S31P, D32S, W47Y, R97S, G98E, D99G, S100D, M101P, V103Y
notes: VHH-Fc
B7: TIGIT-SC201 (Fc fusion)
VHH: B3 VHH with V28T, S31P, D32S, A96T, G98D, D99G, S100G, M101F, V103P
notes: VHH-Fc
B8: TIGIT-SC48 (Fc fusion)
VHH: EVQLVESGGGLVQPGGSLRLSCAASGRTSDIYGMGWFRQAPGKEREAVASIWRSGGNTYYADSVKGRFTISADNSKNTAYLQMNSLKPEDTAVYYCASSTLDVWGQGTLVTVSS
notes: VHH-Fc
B9: TIGIT-SC74 (Fc fusion)
VHH: EVQLVESGGGLVQPGGSLRLSCAASGRTFANNAMGWFRQAPGKEREFVAAINWSGGNTYYADSVKGRFTISADNSKNTAYLQMNSLKPEDTAVYYCAKWSYYGSGLYGMDVWGQGTLVTVSS
notes: VHH-Fc
B10: TIGIT-SC75 (Fc fusion)
VHH: B9 VHH with R27F, T28I, F29G, A30N, N31Y, N32H, N52R, G55D, N57S, T58S
notes: VHH-Fc
B11: TIGIT-SC71 (Fc fusion)
VHH: EVQLVESGGGLVQPGGSLRLSCAASGSIRSLNAMGWFRQAPGKEREFVAAINWDSARTYYADSVKGRFTISADNSKNTAYLQMNSLKPEDTAVYYCARWSAKRHSDTMTYYMDVWGQGTLVTVSS
notes: VHH-Fc
B12: TIGIT-SC44 (Fc fusion)
VHH: EVQLVESGGGLVQPGGSLRLSCAASGSIFGLGAMGWFRQAPGKERELVAITWGGSTTLYADSVKGRFTISADNSKNTAYLQMNSLKPEDTAVYYCATDQGQWLFDFWGQGTLVTVSS
notes: VHH-Fc
B13: TIGIT-SC49 (Fc fusion)
VHH: EVQLVESGGGLVQPGGSLRLSCAASGRTFIGYHMGWFRQAPGKEREFVAAISWTGESTLYADSVKGRFTISADNSKNTAYLQMNSLKPEDTAVYYCARDDYGDYRRYFQHWGQGTLVTVSS
notes: VHH-Fc
B14: TIGIT-SC52 (Fc fusion)
VHH: EVQLVESGGGLVQPGGSLRLSCAASGFLFDSYAMGWFRQAPGKEREFVAAISTGGGWRTYADSVKGRFTISADNSKNTAYLQMNSLKPEDTAVYYCAKRGNDNWYFDLWGQGTLVTVSS
notes: VHH-Fc
B15: TIGIT-SC79 (Fc fusion)
VHH: EVQLVESGGGLVQPGGSLRLSCAASGSILSINTMGWFRQAPGKEREFVAAITSAGGTTYYADSVKGRFTISADNSKNTAYLQMNSLKPEDTAVYYCARWHYDILTGYYWLDSWGQGTLVTVSS
notes: VHH-Fc
B16: TIGIT-SC80 (Fc fusion)
VHH: B15 VHH with S27N, L29P, S30P, T33A, T52N, S53Y, A54S, T57S
notes: VHH-Fc
B17: TIGIT-SC27 (Fc fusion)
VHH: EVQLVESGGGLVQPGGSLRLSCAASGLTFSNYVMGWFRQAPGKEREVVAGILSDGRELYADSVKGRFTISADNSKNTAYLQMNSLKPEDTAVYYCARDVFGEGHWGQGTLVTVSS
notes: VHH-Fc
B18: TIGIT-SC72 (Fc fusion)
VHH: EVQLVESGGGLVQPGGSLRLSCAASGGLTFSSYAMGWFRQAPGKEREFVAAISWSGGRTYYADSVKGRFTISADNSKNTAYLQMNSLKPEDTAVYYCARWSAKRHSDTMTYYMDVWGQGTLVTVSS
notes: VHH-Fc
B19: TIGIT-SC40 (Fc fusion)
VHH: EVQLVESGGGLVQPGGSLRLSCAASGFSFDRWAMGWFRQAPGKERELVARISWNGGSTYYADSVKGRFTISADNSKNTAYLQMNSLKPEDTAVYYCARDDGWLQFMHWGQGTLVTVSS
notes: VHH-Fc
B20: TIGIT-SC47 (Fc fusion)
VHH: EVQLVESGGGLVQPGGSLRLSCAASGRALNMYVMGWFRQAPGKERELVAAIDWSGGSALYADSVKGRFTISADNSKNTAYLQMNSLKPEDTAVYYCASGDGYSMDYFDPWGQGTLVTVSS
notes: VHH-Fc
B21: TIGIT-SC76 (Fc fusion)
VHH: EVQLVESGGGLVQPGGSLRLSCAASGFTFSDYAMGWFRQAPGKERELVARIGHDGSTDYADSVKGRFTISADNSKNTAYLQMNSLKPEDTAVYYCLGGLDPWGQGTLVTVSS
notes: VHH-Fc
B22: TIGIT-SC39 (Fc fusion)
VHH: EVQLVESGGGLVQPGGSLRLSCAASGRTVSSHAMGWFRQAPGKEREFVAAITSSGSTYYADSVKGRFTISADNSKNTAYLQMNSLKPEDTAVYYCASSYSSSSGLGDIWGQGTLVTVSS
notes: VHH-Fc
B23: TIGIT-SC35 (Fc fusion)
VHH: EVQLVESGGGLVQPGGSLRLSCAASGFTLENNMMGWFRQAPGKERELVAAISMSGDDTIYADSVKGRFTISADNSKNTAYLQMNSLKPEDTAVYYCARQGDTVMVSGIDYWGQGTLVTVSS
notes: VHH-Fc
B24: TIGIT-SC28 (Fc fusion)
VHH: EVQLVESGGGLVQPGGSLRLSCAASGRTFSTDAMGWFRQAPGKEREFVATINWKDGFTYYADSVKGRFTISADNSKNTAYLQMNSLKPEDTAVYYCAGVGHDYGDYLFDYWGQGTLVTVSS
notes: VHH-Fc
B25: TIGIT-SC30 (Fc fusion)
VHH: EVQLVESGGGLVQPGGSLRLSCAASGRSFSSDWIGWFRQAPGKERELVAAIDWSGGSALYADSVKGRFTISADNSKNTAYLQMNSLKPEDTAVYYCARVNWNNVGWFDPWGQGTLVTVSS
notes: VHH-Fc
B26: TIGIT-SC45 (Fc fusion)
VHH: EVQLVESGGGLVQPGGSLRLSCAASGGTFNAMGWFRQAPGKEREWVASVLRGGYTWYADSVKGRFTISADNSKNTAYLQMNSLKPEDTAVYYCAKDGGSSGTYQNWWGQGTLVTVSS
notes: VHH-Fc
B27: TIGIT-SC43 (Fc fusion)
VHH: EVQLVESGGGLVQPGGSLRLSCAASGFTFADYAMGWFRQAPGKEREMVAAIGWNSGTTEYADSVKGRFTISADNSKNTAYLQMNSLKPEDTAVYYCARDTNGWFFDFWGQGTLVTVSS
notes: VHH-Fc
B28: TIGIT-SC55 (Fc fusion)
VHH: EVQLVESGGGLVQPGGSLRLSCAASGFPFDDYAMGWFRQAPGKERELVAVIRWTGMNTHYADSVKGRFTISADNSKNTAYLQMNSLKPEDTAVYYCAKGIAVAGAFDYWGQGTLVTVSS
notes: VHH-Fc
B29: TIGIT-SC29 (Fc fusion)
VHH: EVQLVESGGGLVQPGGSLRLSCAASGFTLENNMMGWFRQAPGKERELVAAIDWSGGSTIYADSVKGRFTISADNSKNTAYLQMNSLKPEDTAVYYCARGHDYGDYIAYWGQGTLVTVSS
notes: VHH-Fc
B30: TIGIT-SC34 (Fc fusion)
VHH: EVQLVESGGGLVQPGGSLRLSCAASGTTFSPYTMGWFRQAPGKEREFVASINSGSRTNYADSVKGRFTISADNSKNTAYLQMNSLKPEDTAVYYCVRSEIGWGQGTLVTVSS
notes: VHH-Fc
B31: TIGIT-SC33 (Fc fusion)
VHH: EVQLVESGGGLVQPGGSLRLSCAASGFLFDSYAMGWFRQAPGKEREFVAAVSQSGLLTFYADSVKGRFTISADNSKNTAYLQMNSLKPEDTAVYYCASRTSSWWWFDPWGQGTLVTVSS
notes: VHH-Fc
B32: TIGIT-SC69 (Fc fusion)
VHH: EVQLVESGGGLVQPGGSLRLSCAASGGTFNGRAMGWFRQAPGKEREFVAAISSIGDTYYADSVKGRFTISADNSKNTAYLQMNSLKPEDTAVYYCARWRLDRRQGFYYAMDVWGQGTLVTVSS
notes: VHH-Fc
B33: TIGIT-SC70 (Fc fusion)
VHH: EVQLVESGGGLVQPGGSLRLSCAASGRTFSSFAMGWFRQAPGKEREFVAAISGSGEDTYYADSVKGRFTISADNSKNTAYLQMNSLKPEDTAVYYCARWRLDRRQGFYYAMDVWGQGTLVTVSS
notes: VHH-Fc
B34: TIGIT-SC56 (Fc fusion)
VHH: EVQLVESGGGLVQPGGSLRLSCAASGNTFSGGFMGWFRQAPGKEREWVASVLRGGYTWYADSVKGRFTISADNSKNTAYLQMNSLKPEDTAVYYCAHSKGYNWFDPWGQGTLVTVSS
notes: VHH-Fc
B35: TIGIT-SC32 (Fc fusion)
VHH: EVQLVESGGGLVQPGGSLRLSCAASGFAFGDSWMGWFRQAPGKERELVAAIDWSGGSALYADSVKGRFTISADNSKNTALQMNSLKPEDTAVYYCAKVHSDFRAGWDVWGQGTLVTVSS
notes: VHH-Fc

molecular target: T1, human TIGIT-Fc; assay: CD155 competition ELISA, single point; also: test concentration or dose not given here
Description: TIGIT/CD155 inhibition of VHH-Fcs were assessed using an ELISA assay (Table 10B). Briefly, human TIGIT-Fc was coated on a plate & then incubated with VHH-Fcs and human CD155-biotin. Bound CD155-biotin was detected using a streptavidin-HRP conjugate visualized with TMB. Strong inhibitors from the single point screen were titrated to determine EC50 (Table 10C).

Q: B1 was tested. Which “OD (450 nm)” value did it give?
A: 0.405 OD

Q: For B2, which “OD (450 nm)” value is on record?
A: 0.325 OD

Q: Which “OD (450 nm)” value does the source give for B3 here?
A: 0.49 OD

Q: B4 was tested. Which “OD (450 nm)” value did it give?
A: 0.426 OD

Q: With B5 as the binder, how does the “OD (450 nm)” value read?
A: 0.521 OD

Q: Which “OD (450 nm)” value does the source give for B6 here?
A: 0.514 OD

Q: With B7 as the binder, how does the “OD (450 nm)” value read?
A: 0.509 OD

Q: Which “OD (450 nm)” value does the source give for B8 here?
A: 0.381 OD

Q: With B9 as the binder, how does the “OD (450 nm)” value read?
A: 0.649 OD

Q: How did the “OD (450 nm)” value turn out when B10 was run?
A: 0.652 OD

Q: With B11 as the binder, how does the “OD (450 nm)” value read?
A: 0.868 OD

Q: For B12, which “OD (450 nm)” value is on record?
A: 0.359 OD

Q: How did the “OD (450 nm)” value turn out when B13 was run?
A: 0.382 OD

Q: B14 was tested. Which “OD (450 nm)” value did it give?
A: 0.351 OD

Q: Which “OD (450 nm)” value does the source give for B15 here?
A: 0.8 OD

Q: With B16 as the binder, how does the “OD (450 nm)” value read?
A: 0.508 OD

Q: With B17 as the binder, how does the “OD (450 nm)” value read?
A: 0.505 OD

Q: For B18, which “OD (450 nm)” value is on record?
A: 0.394 OD

Q: With B19 as the binder, how does the “OD (450 nm)” value read?
A: 0.613 OD

Q: How did the “OD (450 nm)” value turn out when B20 was run?
A: 0.69 OD

Q: B21 was tested. Which “OD (450 nm)” value did it give?
A: 0.673 OD

Q: With B22 as the binder, how does the “OD (450 nm)” value read?
A: 0.652 OD

Q: Which “OD (450 nm)” value does the source give for B23 here?
A: 0.42 OD

Q: Which “OD (450 nm)” value does the source give for B24 here?
A: 0.539 OD

Q: B25 was tested. Which “OD (450 nm)” value did it give?
A: 0.495 OD

Q: B26 was tested. Which “OD (450 nm)” value did it give?
A: 0.359 OD

Q: B27 was tested. Which “OD (450 nm)” value did it give?
A: 0.64 OD

Q: Which “OD (450 nm)” value does the source give for B28 here?
A: 0.364 OD

Q: For B29, which “OD (450 nm)” value is on record?
A: 0.399 OD

Q: With B30 as the binder, how does the “OD (450 nm)” value read?
A: 0.4 OD

Q: With B31 as the binder, how does the “OD (450 nm)” value read?
A: 0.764 OD

Q: For B32, which “OD (450 nm)” value is on record?
A: 0.666 OD

Q: Which “OD (450 nm)” value does the source give for B33 here?
A: 0.64 OD

Q: For B34, which “OD (450 nm)” value is on record?
A: 0.335 OD

Q: Which “OD (450 nm)” value does the source give for B35 here?
A: 0.86 OD

Source: patent US20260184782A1 (TWIST BIOSCIENCE, published 2026)
